One block for each binder: values may come before it.
Key:
[1] = biological target: T1, recombinant N-terminal extracellular domain of the human PTH1R receptor (human, UniProt Q03431 27-188, limits assumed); assay: SPR, IgG captured, ECD injected
T1 construct: domain: N-terminal extracellular domain; Bought reagent; also called N-ECD PTH1R; PTH1R N-terminal ECD
T1 sequence (looked up): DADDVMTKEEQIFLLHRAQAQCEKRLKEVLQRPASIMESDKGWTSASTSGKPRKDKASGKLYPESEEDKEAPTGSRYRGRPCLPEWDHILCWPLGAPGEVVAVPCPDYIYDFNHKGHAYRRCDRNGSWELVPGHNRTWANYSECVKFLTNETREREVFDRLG
In short: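 Antibodies (0.5 μg/mL) captured on anti-human IgG-Fc chip to 100–200 RU in HBS-EP+ with 2.5 mg/mL BSA; receptor ECD injected at 30 μL/minute for 240 s, 360 s dissociation, 3M MgCl regeneration. Double-referenced data fit globally for ka and kd; KD=kd/kₐ.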

[2] = biological target: T2, human PTH1R overexpressed on CHO cells (human, UniProt Q03431 27-593); assay: flow cytometry on CHO cells, with 3 uM PTHrP as competitor
T2 construct: whole, on cells; also called CHO human PTH1R; CHO Human PTHR
T2 sequence (looked up): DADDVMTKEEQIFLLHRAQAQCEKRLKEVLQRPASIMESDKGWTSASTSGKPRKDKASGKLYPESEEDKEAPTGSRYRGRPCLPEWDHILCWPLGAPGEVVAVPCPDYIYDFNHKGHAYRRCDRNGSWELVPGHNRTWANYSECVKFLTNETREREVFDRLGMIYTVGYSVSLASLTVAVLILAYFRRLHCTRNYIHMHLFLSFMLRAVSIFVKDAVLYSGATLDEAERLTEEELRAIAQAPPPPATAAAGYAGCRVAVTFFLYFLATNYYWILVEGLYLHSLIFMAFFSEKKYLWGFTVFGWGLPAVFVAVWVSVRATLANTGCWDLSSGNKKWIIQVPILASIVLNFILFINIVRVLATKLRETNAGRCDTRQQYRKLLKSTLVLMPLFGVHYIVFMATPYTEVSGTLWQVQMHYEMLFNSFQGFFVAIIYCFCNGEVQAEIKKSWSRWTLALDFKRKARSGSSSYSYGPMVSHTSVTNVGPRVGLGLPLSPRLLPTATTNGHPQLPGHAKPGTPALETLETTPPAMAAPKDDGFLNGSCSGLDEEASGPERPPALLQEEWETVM
Method: (§1) To characterize antibody binding to PTH1R, cells were labeled with either CellTrace™ CFSE or CellTrace™ Violet. Unlabeled CHOK1 parent, CHO human PTH1R labeled with CellTrace™CFSE, and CHO mouse PTH1R labeled with CellTrace™Violet were pooled together and stained with increasing concentrations of antibody. Antibodies were incubated for 24 hr at 4° C. followed by two washes with FACS Buffer (0.5% BSA, 0.1% NaN3 in DPBS). Cells were then incubated with Allophycocyanin (APC) AffiniPure F(ab′)₂ Fragment Goat Anti-Human IgG (H+L) (Jackson ImmunoResearch, West Grove, Pa.) for 20 minutes at 4° C. Followed by two washes, cells were resuspended in FACS Buffer. Samples were acquired using BD Cytometer (BD Biosciences, San Jose, Calif.) and data were analyzed using FlowJo (FlowJo, LLC, Ashland, Oreg.) and Prism (GraphPad Software, La Jolla, Calif.).

[3] = biological target: T3, mouse PTH1R overexpressed on CHO cells (mouse, UniProt P41593 27-591); assay: as above
T3 construct: whole, on cells; also called CHO mouse PTH1R; CHO Mouse PTHR
T3 sequence (looked up): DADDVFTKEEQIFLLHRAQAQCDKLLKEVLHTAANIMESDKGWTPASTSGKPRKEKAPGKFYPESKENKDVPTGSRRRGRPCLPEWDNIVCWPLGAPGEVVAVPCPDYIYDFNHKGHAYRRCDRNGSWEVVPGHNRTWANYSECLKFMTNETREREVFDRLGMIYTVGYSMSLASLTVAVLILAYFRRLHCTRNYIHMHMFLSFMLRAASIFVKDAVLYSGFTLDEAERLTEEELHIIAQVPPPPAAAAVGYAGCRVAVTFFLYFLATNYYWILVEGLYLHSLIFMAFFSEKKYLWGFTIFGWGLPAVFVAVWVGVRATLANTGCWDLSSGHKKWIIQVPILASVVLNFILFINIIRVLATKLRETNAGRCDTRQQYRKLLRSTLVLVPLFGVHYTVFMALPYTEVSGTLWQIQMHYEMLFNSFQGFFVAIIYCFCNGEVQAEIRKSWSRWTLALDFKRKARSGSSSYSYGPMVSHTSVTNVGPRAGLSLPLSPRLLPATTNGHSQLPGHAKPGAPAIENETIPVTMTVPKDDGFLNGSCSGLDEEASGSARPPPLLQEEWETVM
Method: as §1

[4] = biological target: T2, human PTH1R overexpressed on CHO cells; assay: cell-based or functional assay
[5] = biological target: T3, mouse PTH1R overexpressed on CHO cells; assay: cell-based or functional assay
[6] = biological target: T4, human PTH1R on Saos-2 cells (endogenous) (human, UniProt Q03431 27-593); assay: cell-based or functional assay
T4 sequence (looked up): T2 sequence (looked up)

B1: XPA.85.329 (antibody, V domains shown)
VH: QMQLVQSGAEVKKPGSSVKVSCKASGGTFSSYAISWVRQAPGQGLEWMGGIIPIFGTANYAQKFQGRVTITADESTSTAYMELSSLRSEDTAVYYCARGYVVARLWGQGTLVTVSS
VL: DIVMTQTPLSLSVTPGQPASISCKSSQSLLHIDGLTYLYWYLQKPGQPPQLLIYEVSHRFSGVSDKFSGSGSGTDFTLTISRVEAEDVGVYYCMQSLHLPITFGQGTRLEIK
notes: IgG; also called Ab329; XPA.329
- Kd [1]: 0.22 nM
- koff [1]: 7.6e-05 s⁻¹
- kon [1]: 340000 M⁻¹ s⁻¹

B2: XPA.85.341 (antibody, V domains shown)
VH: EVQLVETGGGVVRPGGSLRLSCAASGFTFSSSAMSWVRQTPGKELQWVSAITPGGEGTYYADVVKGRFTISRDNSKDTLYLQMDSLRAEDTAVYYCARDLYGSYGDAFDIWGQGTLVTVSS
VL: SYELTQPSSVSVSPGQTASITCSGDKLGEKYASWYQQKPGQSPVLVMFEDTKRPSGIPERFSGSNSGNTATLTISGTQAEDEADYYCQAWDSSWVFGGGTQLTVL
notes: Light-chain-shuffled variant of XPA.85.017
- EC50 [2]: 1.11 nM
- EC50 [3]: 14.5 nM
- Kd [1]: 0.31 nM
- koff [1]: 0.0006 s⁻¹
- kon [1]: 1.9e+06 M⁻¹ s⁻¹
- EC50 of PTH(1-34), cAMP assay, with 267 nM IgG [4]: 0.404 nM
- EC50 of PTH(1-34), cAMP assay, with 267 nM IgG [5]: 2.15 nM
- EC50 of PTH(1-34), cAMP assay, with 267 nM IgG [6]: 38.1 nM
- EC50 of PTHrP(1-34), cAMP assay, with 267 nM IgG [6]: 63 nM

The remaining binders from weak to strong by Kd [1], led by results:

- EC50 [2]: 0.479 nM
- EC50 [3]: 18.7 nM
- Kd [1]: 0.22 nM
- koff [1]: 0.00065 s⁻¹
- kon [1]: 2.9e+06 M⁻¹ s⁻¹
- EC50 of PTH(1-34), cAMP assay, with 267 nM IgG [4]: 0.613 nM
- EC50 of PTH(1-34), cAMP assay, with 267 nM IgG [5]: 1.95 nM
- EC50 of PTH(1-34), cAMP assay, with 267 nM IgG [6]: 24.8 nM
- EC50 of PTHrP(1-34), cAMP assay, with 267 nM IgG [6]: 31.4 nM
B3: XPA.85.339 (antibody, V domains shown)
VH: B2 VH
VL: SYELTQPPSVSVAPGQTATITCSGDRLGDKFISWYQQKPGQSPLLVIFEDNERPSRIPERFSGSNSGNSATLTISGTQAVDEADYYCQAWDSSWVFGGGTQLTVL
notes: as for B2

- EC50 [2]: 0.304 nM
- EC50 [3]: 1.51 nM
- Kd [1]: 0.099 nM
- koff [1]: 0.00036 s⁻¹
- kon [1]: 3.6e+06 M⁻¹ s⁻¹
- EC50 of PTH(1-34), cAMP assay, with 267 nM IgG [4]: 0.908 nM
- EC50 of PTHrP(1-34), cAMP assay, with 267 nM IgG [4]: 52.7 nM
- fold-shift in PTH(1-34) EC50 vs vehicle only, cAMP assay [4]: 29 fold
- fold-shift in PTHrP(1-34) EC50 vs vehicle only, cAMP assay [4]: > 100 fold
- EC50 of PTH(1-34), cAMP assay, with 267 nM IgG [5]: 13.6 nM
- EC50 of PTHrP(1-34), cAMP assay, with 267 nM IgG [5]: 5.77 nM
- fold-shift in PTH(1-34) EC50 vs vehicle only, cAMP assay [5]: > 100 fold
- fold-shift in PTHrP(1-34) EC50 vs vehicle only, cAMP assay [5]: > 100 fold
- EC50 of PTH(1-34), cAMP assay, with 267 nM IgG [6]: 78.6 nM
- EC50 of PTHrP(1-34), cAMP assay, with 267 nM IgG [6]: 62.2 nM
- fold-shift in PTH(1-34) EC50 vs vehicle only, cAMP assay [6]: > 100 fold
- fold-shift in PTHrP(1-34) EC50 vs vehicle only, cAMP assay [6]: 89 fold
B4: XPA.85.287 (antibody, V domains shown)
VH: B2 VH
VL: SYVLTQPPSVSVAPGQTARITCSGDKLGDRYVSWYQQKPGQSPVLVMFEDTGRPAGIPERFSGSNSGNTATLTISGTQAEDEADYYCQAWGTSWVFGGGTQLTVL
notes: also called Ab287

Source: patent US20200317817A1 (XOMA US, published 2020)
